Assays:
[1] = target: T1, human tumor necrosis factor-α (R & D Co., Catalog Number: 210-TA-050) (human, UniProt P01375 77-233); assay: cell-based or functional assay
[2] = target: T1, human tumor necrosis factor-α (R & D …); assay: BLI, Octet RED 96, biotin-hTNF-α on streptavidin sensor, antibody in solution
Procedure: hTNF-α (R & D Co., 210-TA-050) and NHS-LCLC-biotin (Catalog Number: 21338, purchased from Thermo-fisher Co.,) were mixed uniformly at a molar ratio of 1:3 and kept at room temperature for 1 hour. Then, the remaining NHS-LCLC-biotin was removed by a PD-10 desalting column (Catalog Number: 17-0851-01, purchased from GE Co.,). The final conjugate products obtained were 50 μg/ml of biotin-hTNF-α.

[3] = target: T1, human tumor necrosis factor-α (R & D …); assay: ELISA, plate coated with human TNF-α, Fab titrated, anti-human C-Kappa-HRP
[4] = target: T1, human tumor necrosis factor-α (R & D …); assay: cell-based or functional assay; remark: listed apart in the source

T1 sequence (P01375 77-233 limits assumed): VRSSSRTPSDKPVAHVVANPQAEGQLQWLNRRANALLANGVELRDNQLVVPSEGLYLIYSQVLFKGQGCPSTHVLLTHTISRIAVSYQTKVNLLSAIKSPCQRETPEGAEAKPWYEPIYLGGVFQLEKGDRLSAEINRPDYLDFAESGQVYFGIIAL

| Binder | EC50, L929 cytotoxicity experiment [1] [nM] | also measured |
| --- | --- | --- |
| KS04 (antibody, human IgG1, kappa, V domains shown) VH: QVQLVESGGGLVKPGGSLRLSCAASGFTFSNAWMNWVRQAPGKGLEWVAEIRSKSINSATHYAESVKGRFTISRDNSKKTLYLEMNSLRVEDTAVYYCSRNYYGSTYDYWGQGTTLTVSS VL: EIVLTQSPDFQSVTPKEKVTITCRASQSIYSSLHWYQQKPDQSPKLLIKFASQSVSGVPSRFSGSGSGTDFTLTINSLEAEDAATYYCQQSHSWPFTFGSGTNVDIKR | 0.126 |  |
| KS10 (Glu) (antibody, V domains shown, Full-length IgG1 from CHO cells; VH SH01 with the first amino acid Glu, VK SH08) VH: EVQLVESGGGLVKPGGSLRLSCAASGFTFSNAWMNWVRQAPGKGLEWVAEIRSKSINSATHYAESVKGRFTISRDDSKNTVYLQMNSLKTEDTAVYYCSRNYYGSTYDYWGQGTTLTVSS VL: EIVLTQSPDFQSVTPKEKVTITCRASQSIYSSLHWYQQKPDQSPKLLIKFASQSVSGVPSRFSGSGSGTDFTLTINSLEAEDAATYYCQQSHWWPFTFGSGTNVDIKR | 0.028 | Kd [2]: 0.00218 nM; koff [2]: 1.02e-07 s⁻¹; kon [2]: 46900 M⁻¹ s⁻¹ |
| KS12 (antibody, human IgG1, kappa, V domains shown) VH: QVQLVESGGGLVKPGGSLRLSCAASGFTFSNAWMNWVRQAPGKGLEWVAEIRSKSINSATHYAESVKGRFTISRDNSKKTLYLEMNSLRVEDTAVYYCSRNYYGSTYDYWGQGTTLTVSS VL: EIVLTQSPDFQSVTPKEKVTITCRASQSIYSSLHWYQQKPDQSPKLLIKFASQSVSGVPSRFSGSGSGTDFTLTINSLEAEDAATYYCQQSHWWPFTFGSGTNVDIKR | 0.136 |  |
| KS02 (antibody, human IgG1, kappa, V domains shown) VH: QVQLVESGGGLVKPGGSLRLSCAASGFTFSNAWMNWVRQAPGKGLEWVAEIRSKSINSATHYAESVKGRFTISRDNSKKTLYLEMNSLRVEDTAVYYCSRNYYGSTYDYWGQGTTLTVSS VL: EIVLTQSPDFQSVSPKETVTITCRASQTVHMSLHWYQQKPNQSPRLLIKYGSQSFSGVPSRFSGSGSGTDFTLTINSLEPEDAATYYCQQSHSWPFTFGSGTNVDIKR | 0.109 |  |
| KS08 (antibody, human IgG1, kappa, V domains shown) VH: QVQLVESGGGLVKPGGSLRLSCAASGFTFSNAWMNWVRQAPGKGLEWVAEIRSKSINSATHYAESVKGRFTISRDNSKKTLYLEMNSLRVEDTAVYYCSRNYYGSTYDYWGQGTTLTVSS VL: EIVLTQSPDFQSVSPKETVTITCRASQTVHMSLHWYQQKPNQSPRLLIKYGSQSFSGVPSRFSGSGSGTDFTLTINSLEPEDAATYYCQQSHFWPFTFGSGTNVDIKR | 0.113 |  |
| KS-2E (Fab, V domains shown, Humanized Fab (heavy chain Fd fragment and light chain), expressed in E. coli periplasm) VH: QVQLVESGGGLVKPGGSLRLSCAASGFTFSNAWMNWVRQAPGKGLEWVAEIRSKSINSATHYAESVKGRFTISRDNSKKTLYLEMNSLRVEDTAVYYCSRNYYGSTYQYWGQGTTLTVSS VL: EIVLTQSPDFQSVSPKETVTITCRASQTVHMSLHWYQQKPNQSPRLLIKYGSQSFSGVPSRFSGSGSGTDFTLTINSLEPEDAATYYCQQSHKWPFTFGSGTNVDIKR |  | EC50 [3]: 6.66 nM; EC50 (read off the curve); L929 cytotoxicity assay, inhibition rate (%) [4]: ~4 nM |
| KS07 (antibody, human IgG1, kappa, V domains shown) VH: QVQLVESGGGLVKPGGSLRLSCAASGFTFSNAWMNWVRQAPGKGLEWVAEIRSKSINSATHYAESVKGRFTISRDNSKKTLYLEMNSLRVEDTAVYYCSRNYYGSTYDYWGQGTTLTVSS VL: EIVLTQSPDFQSVTPKEKVTITCRASQSIYSSLHWYQQKPDQSPKLLIKFASQSVSGVPSRFSGSGSGTDFTLTINSLEAEDAATYYCQQSHFWPFTFGSGTNVDIKR | 0.1 |  |
| KS11 (antibody, human IgG1, kappa, V domains shown) VH: QVQLVESGGGLVKPGGSLRLSCAASGFTFSNAWMNWVRQAPGKGLEWVAEIRSKSINSATHYAESVKGRFTISRDNSKKTLYLEMNSLRVEDTAVYYCSRNYYGSTYDYWGQGTTLTVSS VL: EIVLTQSPDFQSVSPKETVTITCRASQTVHMSLHWYQQKPNQSPRLLIKYGSQSFSGVPSRFSGSGSGTDFTLTINSLEPEDAATYYCQQSHWWPFTFGSGTNVDIKR | 0.059 |  |
